The values below come from US20230250193A1 (PROVIVA THERAPEUTICS HONG KONG, published 2023).

The target of the test is T1, human FAPα (fibroblast activation protein-α) expressed on cells (human, UniProt Q12884 1-760).
T1 construct: also called cells expressing FAP
T1 sequence: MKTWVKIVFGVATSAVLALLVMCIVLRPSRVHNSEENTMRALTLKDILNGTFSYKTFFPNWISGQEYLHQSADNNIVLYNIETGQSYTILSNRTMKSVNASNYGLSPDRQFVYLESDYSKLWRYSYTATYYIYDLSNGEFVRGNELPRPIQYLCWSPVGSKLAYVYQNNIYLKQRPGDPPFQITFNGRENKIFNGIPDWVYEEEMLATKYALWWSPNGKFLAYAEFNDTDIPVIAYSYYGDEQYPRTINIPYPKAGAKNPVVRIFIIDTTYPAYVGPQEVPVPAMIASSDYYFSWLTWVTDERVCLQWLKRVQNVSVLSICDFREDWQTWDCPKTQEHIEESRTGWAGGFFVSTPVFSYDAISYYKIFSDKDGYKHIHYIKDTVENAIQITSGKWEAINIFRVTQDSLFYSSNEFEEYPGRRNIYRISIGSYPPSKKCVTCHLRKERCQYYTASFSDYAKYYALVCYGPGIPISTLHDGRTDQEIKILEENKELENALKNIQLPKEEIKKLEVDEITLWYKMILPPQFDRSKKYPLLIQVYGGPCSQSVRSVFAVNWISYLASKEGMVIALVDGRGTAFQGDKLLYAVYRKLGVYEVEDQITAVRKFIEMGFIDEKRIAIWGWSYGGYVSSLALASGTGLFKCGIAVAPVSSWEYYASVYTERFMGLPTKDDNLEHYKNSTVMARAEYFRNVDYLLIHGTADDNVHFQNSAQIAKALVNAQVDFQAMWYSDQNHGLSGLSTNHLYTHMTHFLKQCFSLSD
The test can be described thus: flow cytometry on FAPα-expressing cells, PE-labeled anti-human IgG detection. The protocol:
FACS analysis. FACS analysis was performed for purified antibodies. Binding of Expi293 expression supernatant or purified antibodies to FAPα and/or B7H3 expressing cells was determined by flow cytometry. lx […] were incubated for 1 hour at 4° C. with purified antibodies. After washing twice with cold FACS buffer (PBS containing 1% BSA and 0.1% sodium azide), cell surface bound antibody was detected by incubating the cells with phycoerythrin (PE)-labeled anti-human IgG antibody (Jackson Immuno, Cat #109-116-098) for 1 hour at 4° C. Cells were washed twice in FACS buffer and analyzed using Guava EasyCyte HT (Merck Millipore).
For orientation: In flow cytometry, cells or beads pass a laser one at a time.

B1: P28832158 (antibody, human IgG1, kappa, V domains shown)
VH: QVQLVQSGAEVKKPGASVKVSCKASGYTFTMNIIHWVRQAPGQGLEWMGWIHPGSGAIKYAQKLQGRVTMTTDTSTSTAYMELRSLRSDDTAVYYCARHGGTGRGAMDYWGQGTLVTVSS
VL: EIVLTQSPGTLSLSPGERATLSCRASQSVSTSAYSYMHWYQQKPGQAPRLLIYLASNLESGIPDRFSGSGSGTDFTLTISRLEPEDFAVYYCQQSRELPYTFGQGTKLEIKR
notes: Produced in Expi293 cells; also called M-87_G1; VH6.32/VL7.00
With B1, the binding result is recorded as “binds”.
